Target: Flag-tagged BPGAP1
Experiment: co-immunoprecipitation (anti-Flag M2 beads) with immunoblot quantification
Conditions: HEK293T cell lysates; three independent experiments; parent: est. 1.0; read off a plot

| Substance | ratio to parent |
| --- | --- |
| HA-tagged Rac1, wild-type (WT) (from UniProt P63000) G12V | 0.72 fold change |
| HA-tagged Rac1, wild-type (WT) (from UniProt P63000) T17N | 2.2 fold change |
